From article PMC3796546

Target: T1, Smt3 (SUMO), endogenous, Q12306
T1 chain: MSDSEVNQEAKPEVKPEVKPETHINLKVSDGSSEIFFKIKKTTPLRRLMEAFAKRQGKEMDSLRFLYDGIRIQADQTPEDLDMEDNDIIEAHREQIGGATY
Experiment: co-IP with mass spectrometry
Conditions: chain shown with the change, cross-linked in vivo with formaldehyde, p value 0.04637

B1: N-terminal 3xHA-tagged wild-type Irc20, Q06554 C1239A (protein)
chain: MSAVGALLAREYNVTAEKCDFFLENGSFDSVIAALPALNQEQETVTQKVSKNGKELINVASVNIEIPERISLSNNGRQLFKFIVDIEILPCENDNEATLVVSSDSVSLFQIGFKMENNSKIAVDKQLPLILDICAHKNQERALRNQLENRKSLERKPSRKRRKKNSNVNDPEKLLKSRIHELSLSYKDFECSPVVFRYNDSSLTWVLSFNLKLKFLNNKFNRFSVEANQILDLTFSNRDENEFERYHKHSHIHSNFIQKQFISQILEYSKDRLSKIKPFLPQSIPDLKVNLLPFQRESVEWMLIKEGHGNSLSDTPTVIDEVGLIDFMNEYYAYGYELIARSPDEVGPSLLWNKLTGYILTTEDAAHLYNQYRKERLSGDYPVCAKGVLAEEMGLGKTIEILSLILLNRRKLKDSEATFIDDENRTITKTKTTLIICPNAILKQWLEEIELHANSLKWYTYRGYNEIMKDCKTVDEAVQQLCQYDIIVTSYNIIATEVHHAEFNRSIRSRRLKSPKYDYSSPLALMQFYRIILDEVQMLRSSSTYSAKCTSLLHRIHTWGVSGTPIQNIYNFRMIMSYLKLHPFCDEVDFIRTLQEEIKLRNEAKDYTSNDFVCQLKGVRFSIKDCMNIFYRYDLCIRHSKANVASQIHIPRQHNFIIPLEFAPIEWDNYLNLWNNFLELSGYNSDGSGSPRVSNAFLNEWLSRLRYICCHALFPEILSTRQKRLHGHLSRISNIDDILISMRMDAFDSLIGYYRERFHLSIKQAQYELEISNTPAKALESFIKIRDDLMIHIRQKFNVEDPFDKSLNLSEDEDEHMDERFGEKETSSGDESDREINGAKNHDNHNNDGMLSNHLKKKGLRAMMNLLHDCYFFLGSVYYNLGTRKLEEADDKHRKEKTEEVVYSDVFPKNELEEIEENRLLEQENYANAEILRKSILSSEARKVDMTIKMARTKFAPMTSNIPLRLINIEFDHKNDYSSNLAVSRCFKSLSKLIEGLNEQTKNFNELLDELLIIIYEPVHRTEDDDSTNKIIGNEEYSTSIDSQDKIFSLLGCLEIILQNRDNILTSESEVKIPKHLVPEGSIISKYQKQLLNSLRLISGTPLRTVFDELKNSRIVRRISSSNESESTIQNFEDYLLQYEVESKSLFKYNKQVRESLKILGSIYNAKTEYYSQLQRISDSLVSLHSLSAPQLSHLIRTINKSLGGTLDAKINNIESRLIYLKNLSRLKDTLNDNQILSASICLGEVEIGAIIKCGHYFCKSCILTWLRAHSKCPICKGFCSISEVYNFKFKNSTEKREKEIQEPRREGADSSQDNSNENSIISNMSEVEKLFGNKYEQFHQINEVHQIHIKESFGAKIDFVIKLISYLRLKSEQENADPPQVILYSQKTEYLKVIGKVLKLYHIEHLACLSNTANVGETINNFKRQPSVTCLLLNVKTLGAGLNLINAKHIFLLDPILNNSDELQAMGRNNRIGQDEETFVWNFMIRNTVEENILRYKCILEERKRKEKSKKGDKYDEAQDETDNEESDDAKFEISVVDQEVSNEHLWNCFFHGSD
- ratio to parent: > 11
- other: sum (parent: 0): 11
